Experimental data from patent US20090221029.
Where two headings read alike, the source gives them in different places.

T1: Pyrococcus furiosus PCNA
T1 sequence: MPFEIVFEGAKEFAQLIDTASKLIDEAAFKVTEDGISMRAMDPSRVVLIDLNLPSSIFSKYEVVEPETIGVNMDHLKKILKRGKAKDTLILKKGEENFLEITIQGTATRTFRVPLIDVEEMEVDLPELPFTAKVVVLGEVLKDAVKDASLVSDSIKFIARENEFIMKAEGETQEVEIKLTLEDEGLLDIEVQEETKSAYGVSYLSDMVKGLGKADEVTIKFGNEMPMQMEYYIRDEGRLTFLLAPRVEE

T2: Pyrococcus furiosus PCNA
T2 chain: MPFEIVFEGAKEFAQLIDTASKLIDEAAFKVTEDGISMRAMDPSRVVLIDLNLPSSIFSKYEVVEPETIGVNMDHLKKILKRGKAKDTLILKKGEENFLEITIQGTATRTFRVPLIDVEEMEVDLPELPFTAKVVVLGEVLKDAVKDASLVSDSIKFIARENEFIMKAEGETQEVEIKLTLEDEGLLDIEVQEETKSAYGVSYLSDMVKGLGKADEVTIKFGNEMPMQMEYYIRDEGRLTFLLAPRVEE

B1: P. furiosus pol II DNA polymerase (recombinant CBP-DP1/DP2) (protein)
chain 1: MDEFVKSLLKANYLITPSAYYLLREYYEKGEFSIVELVKFARSRESYIITDALATEFLKVKGLEPILPVETKGGFVSTGESQKEQSYEESFGTKEEISQEIKEGESFISTGSEPLEEELNSIGIEEIGANEELVSNGNDNGGEAIVFDKYGYPMVYAPEEIEVEEKEYSKYEDLTIPMNPDFNYVEIKEDYDVVFDVRNVKLKPPKVKNGNGKEGEIIVEAYASLFRSRLKKLRKILRENPELDNVVDIGKLKYVKEDETVTIIGLVNSKREVNKGLIFEIEDLTGKVKVFLPKDSEDYREAFKVLPDAVVAFKGVYSKRGILYANKFYLPDVPLYRRQKPPLEEKVYAILISDIHVGSKEFCENAFIKFLEWLNGNVETKEEEEIVSRVKYLIIAGDVVDGVGVYPGQYADLTIPDIFDQYEALANLLSHVPKHITMFIAPGNHDAARQAIPQPEFYKEYAKPIYKLKNAVIISNPAVIRLHGRDFLIAHGRGIEDVVGSVPGLTHHKPGLPMVELLKMRHVAPMFGGKVPIAPDPEDLLVIEEVPDVVHMGHVHVYDAVVYRGVQLVNSATWQAQTEFQKMVNIVPTPAKVPVVDIDTAKVVKVLDFSGWC
chain 2: MELPKEIEEYFEMLQREIDKAYEIAKKARSQGKDPSTDVEIPQATDMAGRVESLVGPPGVAQRIRELLKEYDKEIVALKIVDEIIEGKFGDFGSKEKYAEQAVRTALAILTEGIVSAPLEGIADVKIKRNTWADNSEYLALYYAGPIRSSGGTAQALSVLVGDYVRRKLGLDRFKPSGKHIERMVEEVDLYHRAVSRLQYHPSPDEVRLAMRNIPIEITGEATDDVEVSHRDVEGVETNQLRGGAILVLAEGVLQKAKKLVKYIDKMGIDGWEWLKEFVEAKEKGEEIEESESKAEESKVETRVEVEKGFYYKLYEKFRAEIAPSEKYAKEIIGGRPLFAGPSENGGFRLRYGRSRVSGFATWSINPATMVLVDEFLAIGTQMKTERPGKGAVVTPATTAEGPIVKLKDGSVVRVDDYNLALKIRDEVEEILYLGDAIIAFGDFVENNQTLLPANYVEEWWIQEFVKAVNEAYEVELRPFEENPRESVEEAAEYLEVDPEFLAKMLYDPLRVKPPVELAIHFSEILEIPLHPYYTLYWNTVNPKDVERLWGVLKDKATIEWGTFRGIKFAKKIEISLDDLGSLKRTLELLGLPHTVREGIVVVDYPWSAALLTPLGNLEWEFKAKPFYTVIDIINENNQIKLRDRGISWIGARMGRPEKAKERKMKPPVQVLFPIGLAGGSSRDIKKAAEEGKIAEVEIAFFKCPKCGHVGPETLCPECGIRKELIWTCPKCGAEYTNSQAEGYSYSCPKCNVKLKPFTKRKIKPSELLNRAMENVKVYGVDKLKGVMGMTSGWKIAEPLEKGLLRAKNEVYVFKDGTIRFDATDAPITHFRPREIGVSVEKLRELGYTHDFEGKPLVSEDQIVELKPQDVILSKEAGKYLLRVARFVDDLLEKFYGLPRFYNAEKMEDLIGHLVIGLAPHTSAGIVGRIIGFVDALVGYAHPYFHAAKRRNCDGDEDSVMLLLDALLNFSRYYLPEKRGGKMDAPLVITTRLDPREVDSEVHNMDVVRYYPLEFYEATYELKSPKELVGVIERVEDRLGKPEMYYGIKFTHDTDDIALGPKMSLYKQLGDMEEKVKRQLTLAERIRAVDQHYVAETILNSHLIPDLRGNLRSFTRQEFRCVKCNTKYRRPPLDGKCPVCGGKIVLTVSKGAIEKYLGTAKMLVANYNVKPYTRQRICLTEKDIDSLFEYLFPEAQLTLIVDPNDICMKMIKERTGETVQGGLLENFNSSGNNGKKIEKKEKKAKEKPKKKKVISLDDFFSKR

Columns and labels:
Pyrococcus furiosus PCNA [1] = test system: T1, Pyrococcus furiosus PCNA
Pyrococcus furiosus PCNA [2] = molecular target: T2, Pyrococcus furiosus PCNA

Molecule	dNTP incorporation into primed M13 DNA (Pyrococcus furiosus PCNA [1])	dNTP incorporation into primed M13 DNA (Pyrococcus furiosus PCNA [2])
cloned Pfu DNA polymerase (Pyrococcus furiosus pol I)	PCNA was shown to stimulate dNTP incorporation by both Pfu (pol I) and P. furiosus pol II DNA polymerases	–
B1	–	PCNA was shown to stimulate dNTP incorporation by both Pfu (pol I) and P. furiosus pol II DNA polymerases
